Assay results taken from patent US20040147436A1.

How the values were obtained:
[1] = tested on: FVIII derivatives
[2] = tested on: T1, dBN(64-53) FVIII derivative
T1 sequence: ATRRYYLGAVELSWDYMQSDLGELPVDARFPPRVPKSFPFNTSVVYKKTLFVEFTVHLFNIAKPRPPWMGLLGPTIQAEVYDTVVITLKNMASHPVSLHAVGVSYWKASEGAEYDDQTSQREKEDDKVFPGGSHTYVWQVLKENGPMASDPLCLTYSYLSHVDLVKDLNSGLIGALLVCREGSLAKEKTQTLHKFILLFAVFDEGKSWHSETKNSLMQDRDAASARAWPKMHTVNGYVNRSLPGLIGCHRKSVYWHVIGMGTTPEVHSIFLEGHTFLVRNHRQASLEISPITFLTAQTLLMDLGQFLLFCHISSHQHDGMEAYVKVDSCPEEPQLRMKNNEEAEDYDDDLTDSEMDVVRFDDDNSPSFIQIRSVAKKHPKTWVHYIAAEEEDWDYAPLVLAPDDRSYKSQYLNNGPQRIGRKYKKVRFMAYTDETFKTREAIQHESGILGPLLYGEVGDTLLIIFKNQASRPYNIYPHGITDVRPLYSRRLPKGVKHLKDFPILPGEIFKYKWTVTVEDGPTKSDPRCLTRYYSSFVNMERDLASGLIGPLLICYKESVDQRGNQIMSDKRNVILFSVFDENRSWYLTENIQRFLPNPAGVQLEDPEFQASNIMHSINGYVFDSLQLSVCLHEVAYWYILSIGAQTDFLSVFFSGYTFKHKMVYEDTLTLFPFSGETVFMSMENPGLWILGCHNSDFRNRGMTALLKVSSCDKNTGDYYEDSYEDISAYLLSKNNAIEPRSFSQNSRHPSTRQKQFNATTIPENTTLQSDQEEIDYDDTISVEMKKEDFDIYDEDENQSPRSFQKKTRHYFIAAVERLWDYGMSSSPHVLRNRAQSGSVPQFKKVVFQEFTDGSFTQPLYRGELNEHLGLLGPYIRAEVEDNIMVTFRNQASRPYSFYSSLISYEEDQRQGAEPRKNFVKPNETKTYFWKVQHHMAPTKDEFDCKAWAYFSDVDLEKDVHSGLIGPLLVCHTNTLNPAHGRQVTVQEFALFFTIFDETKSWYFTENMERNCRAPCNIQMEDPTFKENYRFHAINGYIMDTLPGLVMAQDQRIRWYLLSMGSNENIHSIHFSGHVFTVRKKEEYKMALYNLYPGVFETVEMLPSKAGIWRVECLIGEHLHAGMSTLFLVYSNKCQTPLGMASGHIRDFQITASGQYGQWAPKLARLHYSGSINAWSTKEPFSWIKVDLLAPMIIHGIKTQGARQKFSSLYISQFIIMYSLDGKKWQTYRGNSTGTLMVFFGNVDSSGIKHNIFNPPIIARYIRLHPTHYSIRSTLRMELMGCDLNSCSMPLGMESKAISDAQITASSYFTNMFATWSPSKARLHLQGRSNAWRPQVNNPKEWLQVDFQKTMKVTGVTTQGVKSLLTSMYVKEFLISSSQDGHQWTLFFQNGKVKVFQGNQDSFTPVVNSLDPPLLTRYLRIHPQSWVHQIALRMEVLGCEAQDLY

[3] = tested on: T2, dBN(64-56) FVIII derivative
T2 sequence: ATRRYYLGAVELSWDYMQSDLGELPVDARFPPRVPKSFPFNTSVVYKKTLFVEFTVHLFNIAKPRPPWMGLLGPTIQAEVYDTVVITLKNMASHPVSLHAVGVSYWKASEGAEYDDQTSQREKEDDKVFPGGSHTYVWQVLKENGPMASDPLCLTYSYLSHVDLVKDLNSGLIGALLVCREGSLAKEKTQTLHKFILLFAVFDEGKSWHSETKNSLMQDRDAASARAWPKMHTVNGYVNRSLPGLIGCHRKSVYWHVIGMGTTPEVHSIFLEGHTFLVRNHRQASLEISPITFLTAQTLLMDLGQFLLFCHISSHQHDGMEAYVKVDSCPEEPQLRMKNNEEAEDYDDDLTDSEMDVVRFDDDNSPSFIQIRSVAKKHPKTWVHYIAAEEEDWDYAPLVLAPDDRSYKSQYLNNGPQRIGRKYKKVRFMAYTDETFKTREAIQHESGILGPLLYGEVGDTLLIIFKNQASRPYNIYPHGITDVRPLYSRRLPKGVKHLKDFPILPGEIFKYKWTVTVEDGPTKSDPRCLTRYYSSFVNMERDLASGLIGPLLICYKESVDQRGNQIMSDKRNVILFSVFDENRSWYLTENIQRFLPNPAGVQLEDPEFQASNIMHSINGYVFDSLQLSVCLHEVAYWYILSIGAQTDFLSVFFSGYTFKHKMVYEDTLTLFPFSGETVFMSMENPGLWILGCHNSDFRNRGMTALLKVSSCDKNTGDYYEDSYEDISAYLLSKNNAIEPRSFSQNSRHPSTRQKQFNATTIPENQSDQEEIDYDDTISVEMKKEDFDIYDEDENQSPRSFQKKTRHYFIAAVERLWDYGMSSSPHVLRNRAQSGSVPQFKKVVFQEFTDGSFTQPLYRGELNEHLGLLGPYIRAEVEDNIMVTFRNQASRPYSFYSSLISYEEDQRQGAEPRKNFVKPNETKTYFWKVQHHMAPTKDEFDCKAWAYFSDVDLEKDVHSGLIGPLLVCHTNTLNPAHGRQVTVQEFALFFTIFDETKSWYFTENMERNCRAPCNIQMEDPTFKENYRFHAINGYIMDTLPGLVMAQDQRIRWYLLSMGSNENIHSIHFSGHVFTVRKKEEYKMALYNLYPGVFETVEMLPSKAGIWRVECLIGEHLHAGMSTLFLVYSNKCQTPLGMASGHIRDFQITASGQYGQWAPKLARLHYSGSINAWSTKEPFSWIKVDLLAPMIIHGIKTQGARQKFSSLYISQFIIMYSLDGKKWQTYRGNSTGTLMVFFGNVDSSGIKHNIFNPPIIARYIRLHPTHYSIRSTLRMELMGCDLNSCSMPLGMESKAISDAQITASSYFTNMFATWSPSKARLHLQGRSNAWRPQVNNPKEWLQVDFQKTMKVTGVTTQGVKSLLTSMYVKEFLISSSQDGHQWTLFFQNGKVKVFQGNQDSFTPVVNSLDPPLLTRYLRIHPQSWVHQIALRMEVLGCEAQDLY

[4] = target: Some FVIII derivatives; assay: cell-based or functional assay

Row | activation by thrombin, measured in a classical coagulation test (APTT) [4] [fold] | Substance | thrombin cleavage of 35S-labeled immunoprecipitated protein, SDS-PAGE [1] | activation by thrombin, measured in a classical coagulation test (APTT) [2] | activation by thrombin, measured in a classical coagulation test (APTT) [3]
1 | – | thrombin | Analysis of the radiolabeled protein after thrombin digestion indicated a normal appearance of the 73 kD, and 50 and 40 kd fragments | are activated in the same manner as rh FVIII | are activated in the same manner as rh FVIII
2 | 7 | thrombin (enzyme) | – | – | –
